Blank lines part the entries; values can stand above or below the binder they belong to.
Assays:
[1] = target: T1, recombinant mouse PD-L1 soluble protein (mouse, UniProt Q9EP73 19-238, limits assumed, biotinylated); assay: statement in the xenograft example; assay not named
T1 construct: ELISA and BLI used proteins from different sources; They are kept as one molecule because no limits are stated

[2] = target: T2, recombinant mouse CD47 soluble protein (mouse, UniProt Q61735 19-140, limits assumed); assay: as above
T2 sequence (looked up): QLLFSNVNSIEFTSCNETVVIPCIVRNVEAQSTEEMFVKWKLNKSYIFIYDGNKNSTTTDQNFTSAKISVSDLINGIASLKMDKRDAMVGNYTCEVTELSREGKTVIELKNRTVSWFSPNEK

[3] = target: human CD47 on cells (Raji, Nalm-6, HT-1080 tumor cells; human red blood cells) (human, UniProt Q08722 19-323); assay: cell-based or functional assay
[4] = target: T3, recombinant human CD47 soluble protein (human, UniProt Q08722 19-139); assay: BLI (OctetRED96), His-tag CD47 on HIS1K biosensors, bsAb in solution, 1:1 global fit, 30 C
T3 construct: ELISA and BLI used different preparations; They are kept as one molecule because no limits are stated; also called His-tag human CD47

[5] = target: T4, recombinant human PD-L1 soluble protein (human, UniProt Q9NZQ7 19-238, biotinylated); assay: BLI (OctetRED96), biotinylated PD-L1 on streptavidin biosensors, bsAb in solution, 1:1 global fit, 30 C
T4 construct: Bought soluble protein; also called hPD-L1; B7-H1

[6] = target: T5, recombinant cynomolgus monkey PD-L1 soluble protein (cynomolgus monkey, UniProt G7PSE7 19-238, biotinylated); assay: as above
T5 construct: ELISA and BLI used proteins from different suppliers; They are kept as one molecule because no limits are stated; also called cyno PD-L1; cynomolgus PD-L1

[7] = target: T1, recombinant mouse PD-L1 soluble protein; assay: as above
[8] = target: T6, human PD-L1 on cells (hPD-L1-transfected CHO cells; IFNg-induced HT-1080 tumor cells) (human, UniProt Q9NZQ7 19-290); assay: cell-based competition: hPD-1-moFc binding to IFNg-induced PD-L1+CD47+ HT-1080 cells, CellInsight imaging
T6 construct: whole, on cells; The CHO transfectants are negative for human CD47; HT-1080 cells also carry CD47; also called PD-L1+CD47+ HT-1080

[9] = target: T7, recombinant cynomolgus monkey CD47 soluble protein (cynomolgus monkey, UniProt A0A2K5X523 19-139); assay: BLI (OctetRED96); set-up for cynomolgus CD47 not described
T7 construct: also called cyno CD47; cynomolgus CD47

B1: K38xS28 CD47xPD-L1 bispecific antibody (bispecific antibody, human IgG4 S228P, kappa, lambda)
heavy: not shown
light 1: DIQMTQSPSSLSASVGDRVTITCRASQVIANWLNWYQQKPGKAPKLLIYAGSHLQSGVPSRFSGSGSGTDFTLTISSLQPEDFATYYCQQMHPRAPKTFGQGTKVEIKRTVAAPSVFIFPPSDEQLKSGTASVVCLLNNFYPREAKVQWKVDNALQSGNSQESVTEQDSKDSTYSLSSTLTLSKADYEKHKVYACEVTHQGLSSPVTKSFNRGEC
light 2: not shown
notes: also called K38xS28 bsAb
binding result [1]: no binding
binding result [2]: no binding

B2: K33xS79 CD47xPD-L1 bispecific antibody (bispecific antibody, human IgG4 S228P, kappa, lambda)
heavy: not shown
light 1: DIQMTQSPSSLSASVGDRVTITCRASQSISSYLNWYQQKPGKAPKLLIYAASSLQSGVPSRFSGSGSGTDFTLTISSLQPEDFATYYCQQFHKRSPQKFGQGTKVEIKRTVAAPSVFIFPPSDEQLKSGTASVVCLLNNFYPREAKVQWKVDNALQSGNSQESVTEQDSKDSTYSLSSTLTLSKADYEKHKVYACEVTHQGLSSPVTKSFNRGEC
light 2: QSALTQPASVSGSPGQSITISCTGTSSDVFRPPLVSWYQQHPGKAPKLMIYFASLRPSGVSNRFSGSKSGNTASLTISGLQAEDEADYYCSSWDHTGDGHVFGGGTKLTVLGQPKAAPSVTLFPPSSEELQANKATLVCLISDFYPGAVTVAWKADSSPVKAGVETTTPSKQSNNKYAASSYLSLTPEQWKSHRSYSCQVTHEGSTVEKTVAPTECS
notes: also called K33xS79 bsAb
in vitro phagocytosis potency (ADCP of Nalm-6 cells), macrophage donor D#096 [3]: 29.2
in vitro phagocytosis potency (ADCP of Nalm-6 cells), macrophage donor D#097 [3]: 16
in vitro phagocytosis potency (ADCP of Nalm-6 cells), macrophage donor D#103 [3]: 7.5
binding result [2]: no binding
Kd [4]: 56 nM
Kd [5]: 0.5 nM
Kd [6]: 1.35 nM
Kd [7]: 0.52 nM
IC50 [8]: 2.19 pM

B3: K106xS79 CD47xPD-L1 bispecific antibody (bispecific antibody, human IgG4 S228P, kappa, lambda)
heavy: not shown
light 1: not shown
light 2: B2 light 2
notes: also called K106xS79 bsAb
in vitro phagocytosis potency (ADCP of Nalm-6 cells), macrophage donor D#096 [3]: 99.2
in vitro phagocytosis potency (ADCP of Nalm-6 cells), macrophage donor D#097 [3]: 94
in vitro phagocytosis potency (ADCP of Nalm-6 cells), macrophage donor D#103 [3]: 23.5
binding result [1]: binds
binding result [2]: no binding
Kd [4]: 99 nM
IC50 [8]: 3.51 pM

Now from value to binder:

in vitro phagocytosis potency (ADCP of Nalm-6 cells), macrophage donor D#096 [3]: 5.6
in vitro phagocytosis potency (ADCP of Nalm-6 cells), macrophage donor D#097 [3]: 5
in vitro phagocytosis potency (ADCP of Nalm-6 cells), macrophage donor D#103 [3]: 3.2
binding result [1]: binds
binding result [2]: no binding
Kd [9]: 16 nM
Kd [4]: 13.6 nM
IC50 [8]: 0.83 pM
B4: K38xS79 CD47xPD-L1 bispecific antibody (bispecific antibody, human IgG4 S228P, kappa, lambda)
heavy: not shown
light 1: B1 light 1
light 2: B2 light 2
notes: also called K38xS79 bsAb; K38S79

IC50 [8]: 2.52 pM
B5: S79 anti-PD-L1 mAb (antibody, human IgG4 S228P, lambda, V domains shown)
VH: not shown
VL: QSALTQPASVSGSPGQSITISCTGTSSDVFRPPLVSWYQQHPGKAPKLMIYFASLRPSGVSNRFSGSKSGNTASLTISGLQAEDEADYYCSSWDHTGDGHVFGGGTKLTVLG
notes: Bivalent monospecific anti-PD-L1 antibody with the common heavy chain and the S79 lambda light chain; also called S79 mAb; S79_Sc3_1G7_VLCL2 aPDL1 IGLV2-23

— patent US20220315655A1 (NOVIMMUNE, published 2022)
